B1: huAb44.v6.05-40G5c (STEAP1 arm) (antibody, V domains shown)
VH: EVQLVESGGGLVQPGGSLRLSCAASGFTFSDHYMAWVRQAPGKGLVWVSYIDYDGGSTSYGDSVKGRFTISRDNAKSTLYLQMNSLRAEDTAVYYCARRSGFYHVGYAMNAWGQGTTVTVSS
VL: DIVLTQTPLSLSVTPGQPASISCRSSQSLEYSDGYTYLEWYLQKPGQSPQLLIYGVSNRFSGVPDRFSGSGSGTDFTLKISRVEAEDVGVYYCFQATHDPLTFGGGTKVEIK
B2: huAb44.v6.05 (antibody, V domains shown)
VH: B1 VH
VL: B1 VL
B3: vandortuzumab (antibody, V domains shown)
VH: EVQLVESGGGLVQPGGSLRLSCAVSGYSITSDYAWNWVRQAPGKGLEWVGYISNSGSTSYNPSLKSRFTISRDTSKNTLYLQMNSLRAEDTAVYYCARERNYDYDDYYYAMDYWGQGTLVTVSS
VL: DIQMTQSPSSLSASVGDRVTITCKSSQSLLYRSNQKNYLAWYQQKPGKAPKLLIYWASTRESGVPSRFSGSGSGTDFTLTISSLQPEDFATYYCQQYYNYPRTFGQGTKVEIK

Tests used:
human STEAP1 [1] = molecular target: human STEAP1 (human); assay: KinExA, monovalent, live 293 cells
human STEAP1 (human), sequence (chain, as listed by the source): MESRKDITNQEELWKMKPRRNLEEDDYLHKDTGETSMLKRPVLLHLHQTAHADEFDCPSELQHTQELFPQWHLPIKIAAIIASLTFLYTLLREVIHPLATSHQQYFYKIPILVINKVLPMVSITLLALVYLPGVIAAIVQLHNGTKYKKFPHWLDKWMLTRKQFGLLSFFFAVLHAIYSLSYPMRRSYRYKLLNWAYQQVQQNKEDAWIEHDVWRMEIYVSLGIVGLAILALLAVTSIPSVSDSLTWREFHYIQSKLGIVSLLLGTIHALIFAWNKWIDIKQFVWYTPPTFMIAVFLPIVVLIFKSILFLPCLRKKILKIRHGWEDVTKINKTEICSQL

cynomolgus STEAP1 = cynomolgus STEAP1 (cynomolgus monkey); assay: KinExA, monovalent, live 293 cells
cynomolgus STEAP1 (cynomolgus monkey), sequence (chain, as listed by the source): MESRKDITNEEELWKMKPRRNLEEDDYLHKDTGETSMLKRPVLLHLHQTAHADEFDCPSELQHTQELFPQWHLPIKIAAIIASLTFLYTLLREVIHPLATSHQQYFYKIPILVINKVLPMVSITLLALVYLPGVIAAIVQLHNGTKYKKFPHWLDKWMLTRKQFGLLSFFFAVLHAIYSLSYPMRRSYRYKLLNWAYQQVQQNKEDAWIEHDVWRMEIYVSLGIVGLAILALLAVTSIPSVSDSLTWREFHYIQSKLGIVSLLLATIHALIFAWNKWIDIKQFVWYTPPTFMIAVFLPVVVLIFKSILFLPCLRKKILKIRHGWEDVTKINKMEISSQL

human STEAP1 [2] = molecular target: human STEAP1 (human); assay: FACS, LNCaP-X1.2 cells, bivalent

Binder | Kd (human STEAP1 [1]) | Kd (cynomolgus STEAP1) | EC50 (human STEAP1 [2])
B1 | 29 nM | 14 nM | –
B2 | – | – | 1.9 nM
B3 | – | – | 3.5 nM

Reference: patent US20260365758 (published 2026)
